Where a name gives a salt, the structure may show the parent alone. Residues, ends and D or L forms follow the SMILES beside them. *: point of attachment. X5 = CC(=O)Oc1ccc2c3c1O[C@H]1C(O*)=CC[C@H]4[C@@H](C2)N(C)CC[C@]314; X2 = CN1CC[C@]23c4c5ccc(O)c4O[C@H]2C(O*)=CC[C@H]3[C@H]1C5
Experiments:
[1] = Intranasal bioavailability of hydromorphone conjugates (plasma hydromorphone after intranasal dosing); format: in vivo, male Sprague-Dawley rats; details: rat, relative to hydromorphone control
Protocol: Oral, and intranasal bioavailability studies of hydromorphone and hydromorphone conjugates were conducted in male Sprague-Dawley rats. Doses of hydromorphone hydrochloride and hydromorphone conjugates containing equivalent amounts of hydromorphone were administered in deionized water. Oral administration was in 0.5 ml by gavage needle. Intranasal doses were administered by placing 20 microliters into the nasal flares of rats anesthetized with isoflurane. Plasma was collected by retroorbital sinus puncture under isoflurane anesthesia. hydromorphone were determined by LC/MS/MS.
Male Sprague-Dawley rats were provided water ad libitum and doses were administered by placing 0.02 ml of water containing hydromorphone conjugates or hydromorphone […] into the nasal flares. All doses contained equivalent amounts of hydromorphone base. Plasma hydromorphone concentrations were measured by ELISA (hydromorphone, 102919, Neogen, Corporation, Lexington, Ky.) and/or LC/MS. The assay is specific for hydromorphone. These examples illustrate that hydromorphone conjugates decrease the peak level (Cmax) and total absorption (AUC) of hydromorphone as compared to those produced by equimolar (hydromorphone base) doses of hydromorphone HCl when given by the intranasal route of administration.
The following Tables include Hydromorphone amino acid and peptide HCl salt conjugates that were synthesized and tested. Both oral and intranasal bioavailabilities were measured. The bold values are the “corrected values”, that were calculated based on the bioavailability of the control (HM).

[2] = Oral bioavailability of hydromorphone conjugates (plasma hydromorphone after oral gavage); details: rat, relative to hydromorphone control

Compound: CC(C)C[C@H](NC(=O)[C@@H]1CCCN1C(=O)[C@@H]1CCCN1)C(=O)OC1=CC[C@H]2[C@H]3Cc4ccc(O)c5c4[C@@]2(CCN3C)[C@H]1O5 [PPL-HM]
- IN AUC % (corrected value based on bioavailability of control HM) [1]: 53%
- IN Cmax % (corrected value based on control HM) [1]: 70%
- Oral AUC % (corrected value based on bioavailability of control HM) [2]: 22%
- Oral Cmax % (corrected value based on control HM) [2]: 45%

Compound: CC[C@H](C)[C@H](NC(=O)[C@H](CCC(=O)O)NC(=O)[C@@H](N)CCC(=O)O)C(=O)OC1=CC[C@H]2[C@H]3Cc4ccc(O)c5c4[C@@]2(CCN3C)[C@H]1O5 [EEI-HM]
- IN AUC % (corrected value based on bioavailability of control HM) [1]: 59%
- IN Cmax % (corrected value based on control HM) [1]: 88%
- Oral AUC % (corrected value based on bioavailability of control HM) [2]: 56%
- Oral Cmax % (corrected value based on control HM) [2]: 73%

Compound: CC[C@H](C)[C@H](NC(=O)[C@H](Cc1ccc(O)cc1)NC(=O)[C@@H](N)Cc1ccc(O)cc1)C(=O)OC1=CC[C@H]2[C@H]3Cc4ccc(O)c5c4[C@@]2(CCN3C)[C@H]1O5 [YYI-HM]
- IN AUC % (corrected value based on bioavailability of control HM) [1]: 88%
- IN Cmax % (corrected value based on control HM) [1]: 86%
- Oral AUC % (corrected value based on bioavailability of control HM) [2]: 32%
- Oral Cmax % (corrected value based on control HM) [2]: 66%

Compound: CC[C@H](C)[C@H](NC(=O)[C@H](Cc1ccccc1)NC(=O)[C@H](Cc1ccccc1)NC(=O)[C@H](Cc1ccc(O)cc1)NC(=O)[C@@H](N)Cc1ccc(O)cc1)C(=O)OC1=CC[C@H]2[C@H]3Cc4ccc(O)c5c4[C@@]2(CCN3C)[C@H]1O5 [YYFFI-HM] (H-YYFFI-X2)
- IN AUC % (corrected value based on bioavailability of control HM) [1]: 4%
- IN Cmax % (corrected value based on control HM) [1]: 7%
- Oral AUC % (corrected value based on bioavailability of control HM) [2]: 40%
- Oral Cmax % (corrected value based on control HM) [2]: 52%

Compound: CC(C)C[C@H](NC(=O)[C@H](CCCCN)NC(=O)[C@@H](N)CCCCN)C(=O)OC1=CC[C@H]2[C@H]3Cc4ccc(O)c5c4[C@@]2(CCN3C)[C@H]1O5 [KKL-HM]
- IN AUC % (corrected value based on bioavailability of control HM) [1]: 87%
- IN Cmax % (corrected value based on control HM) [1]: 96%
- Oral AUC % (corrected value based on bioavailability of control HM) [2]: 24%
- Oral Cmax % (corrected value based on control HM) [2]: 50%

Compound: CC[C@H](C)[C@H](NC(=O)[C@H](Cc1ccccc1)NC(=O)[C@H](Cc1ccccc1)NC(=O)[C@H](Cc1ccc(O)cc1)NC(=O)[C@@H](N)Cc1ccc(O)cc1)C(=O)OC1=CC[C@H]2[C@H]3Cc4ccc(OC(C)=O)c5c4[C@@]2(CCN3C)[C@H]1O5 [YYFFI-HM-OAc] (H-YYFFI-X5)
- IN AUC % (corrected value based on bioavailability of control HM) [1]: 59%
- IN Cmax % (corrected value based on control HM) [1]: 72%
- Oral AUC % (corrected value based on bioavailability of control HM) [2]: 29%
- Oral Cmax % (corrected value based on control HM) [2]: 40%

Compound: CC(C)C[C@H](NC(=O)[C@H](Cc1ccccc1)NC(=O)[C@@H](N)Cc1ccccc1)C(=O)OC1=CC[C@H]2[C@H]3Cc4ccc(O)c5c4[C@@]2(CCN3C)[C@H]1O5 [FFL-HM]
- IN AUC % (corrected value based on bioavailability of control HM) [1]: 92%
- IN Cmax % (corrected value based on control HM) [1]: 96%
- Oral AUC % (corrected value based on bioavailability of control HM) [2]: 11%
- Oral Cmax % (corrected value based on control HM) [2]: 24%

Compound: CC(C)[C@H](NC(=O)[C@H](CCC(=O)O)NC(=O)[C@@H](N)CCC(=O)O)C(=O)OC1=CC[C@H]2[C@H]3Cc4ccc(O)c5c4[C@@]2(CCN3C)[C@H]1O5 [EEV-HM]
- IN AUC % (corrected value based on bioavailability of control HM) [1]: 31%
- IN Cmax % (corrected value based on control HM) [1]: 70%
- Oral AUC % (corrected value based on bioavailability of control HM) [2]: 21%
- Oral Cmax % (corrected value based on control HM) [2]: 50%

Compound: CC(C)[C@H](NC(=O)[C@H](Cc1ccc(O)cc1)NC(=O)[C@@H](N)Cc1ccc(O)cc1)C(=O)OC1=CC[C@H]2[C@H]3Cc4ccc(O)c5c4[C@@]2(CCN3C)[C@H]1O5 [YYV-HM]
- IN AUC % (corrected value based on bioavailability of control HM) [1]: 73%
- IN Cmax % (corrected value based on control HM) [1]: 73%
- Oral AUC % (corrected value based on bioavailability of control HM) [2]: 30%
- Oral Cmax % (corrected value based on control HM) [2]: 53%

Compound: CC(C)C[C@H](NC(=O)CNC(=O)CN)C(=O)OC1=CC[C@H]2[C@H]3Cc4ccc(O)c5c4[C@@]2(CCN3C)[C@H]1O5 [GGL-HM]
- IN AUC % (corrected value based on bioavailability of control HM) [1]: 52%
- IN Cmax % (corrected value based on control HM) [1]: 85%
- Oral AUC % (corrected value based on bioavailability of control HM) [2]: 22%
- Oral Cmax % (corrected value based on control HM) [2]: 43%

Compound: CC[C@H](C)[C@H](NC(=O)CNC(=O)CN)C(=O)OC1=CC[C@H]2[C@H]3Cc4ccc(O)c5c4[C@@]2(CCN3C)[C@H]1O5 [GGI-HM]
- IN AUC % (corrected value based on bioavailability of control HM) [1]: 24%
- IN Cmax % (corrected value based on control HM) [1]: 66%
- Oral AUC % (corrected value based on bioavailability of control HM) [2]: 17%
- Oral Cmax % (corrected value based on control HM) [2]: 32%

Compound: CC[C@H](C)[C@H](NC(=O)[C@@H]1CCCN1C(=O)[C@@H]1CCCN1)C(=O)OC1=CC[C@H]2[C@H]3Cc4ccc(O)c5c4[C@@]2(CCN3C)[C@H]1O5 [PPI-HM]
- IN AUC % (corrected value based on bioavailability of control HM) [1]: 77%
- IN Cmax % (corrected value based on control HM) [1]: 95%
- Oral AUC % (corrected value based on bioavailability of control HM) [2]: 21%
- Oral Cmax % (corrected value based on control HM) [2]: 60%

Compound: CC(C)[C@H](NC(=O)[C@@H]1CCCN1C(=O)[C@@H]1CCCN1)C(=O)OC1=CC[C@H]2[C@H]3Cc4ccc(O)c5c4[C@@]2(CCN3C)[C@H]1O5 [PPV-HM]
- IN AUC % (corrected value based on bioavailability of control HM) [1]: 71%
- IN Cmax % (corrected value based on control HM) [1]: 101%
- Oral AUC % (corrected value based on bioavailability of control HM) [2]: 24%
- Oral Cmax % (corrected value based on control HM) [2]: 55%

Compound: CC(C)[C@H](NC(=O)[C@H](Cc1ccccc1)NC(=O)[C@@H](N)Cc1ccccc1)C(=O)OC1=CC[C@H]2[C@H]3Cc4ccc(O)c5c4[C@@]2(CCN3C)[C@H]1O5 [FFV-HM]
- IN AUC % (corrected value based on bioavailability of control HM) [1]: 98%
- IN Cmax % (corrected value based on control HM) [1]: 103%
- Oral AUC % (corrected value based on bioavailability of control HM) [2]: 8%
- Oral Cmax % (corrected value based on control HM) [2]: 36%

Compound: CC(C)C[C@H](NC(=O)[C@H](CCC(=O)O)NC(=O)[C@@H](N)CCC(=O)O)C(=O)OC1=CC[C@H]2[C@H]3Cc4ccc(O)c5c4[C@@]2(CCN3C)[C@H]1O5 [EEL-HM]
- IN AUC % (corrected value based on bioavailability of control HM) [1]: 84%
- IN Cmax % (corrected value based on control HM) [1]: 98%
- Oral AUC % (corrected value based on bioavailability of control HM) [2]: 27%
- Oral Cmax % (corrected value based on control HM) [2]: 49%

Compound: CN1CC[C@]23c4c5ccc(O)c4O[C@H]2C(OC(=O)[C@H](Cc2ccccc2)NC(=O)[C@H](Cc2ccccc2)NC(=O)[C@H](Cc2ccccc2)NC(=O)[C@H](CCC(=O)O)NC(=O)[C@@H](N)CCC(=O)O)=CC[C@H]3[C@H]1C5 [EEFFF-HM, Glu2-Phe3-Hydromorphone.Dihydrochloride] (H-EEFFF-X2)
- IN AUC % (corrected value based on bioavailability of control HM) [1]: 52%
- IN Cmax % (corrected value based on control HM) [1]: 57%
- Oral AUC % (corrected value based on bioavailability of control HM) [2]: 79%
- Oral Cmax % (corrected value based on control HM) [2]: 78%

Compound: CC[C@H](C)[C@H](NC(=O)[C@H](Cc1ccccc1)NC(=O)[C@@H](N)Cc1ccccc1)C(=O)OC1=CC[C@H]2[C@H]3Cc4ccc(O)c5c4[C@@]2(CCN3C)[C@H]1O5 [FFI-HM]
- IN AUC % (corrected value based on bioavailability of control HM) [1]: 79%
- IN Cmax % (corrected value based on control HM) [1]: 92%
- Oral AUC % (corrected value based on bioavailability of control HM) [2]: 18%
- Oral Cmax % (corrected value based on control HM) [2]: 47%

Compound: CC(C)[C@H](NC(=O)CNC(=O)CN)C(=O)OC1=CC[C@H]2[C@H]3Cc4ccc(O)c5c4[C@@]2(CCN3C)[C@H]1O5 [GGV-HM]
- IN AUC % (corrected value based on bioavailability of control HM) [1]: 51%
- IN Cmax % (corrected value based on control HM) [1]: 73%
- Oral AUC % (corrected value based on bioavailability of control HM) [2]: 53%
- Oral Cmax % (corrected value based on control HM) [2]: 63%

Compound: CC(C)[C@H](NC(=O)[C@H](CCCCN)NC(=O)[C@@H](N)CCCCN)C(=O)OC1=CC[C@H]2[C@H]3Cc4ccc(O)c5c4[C@@]2(CCN3C)[C@H]1O5 [KKV-HM]
- IN AUC % (corrected value based on bioavailability of control HM) [1]: 75%
- IN Cmax % (corrected value based on control HM) [1]: 89%
- Oral AUC % (corrected value based on bioavailability of control HM) [2]: 43%
- Oral Cmax % (corrected value based on control HM) [2]: 60%

Compound: CC[C@H](C)[C@H](NC(=O)[C@H](CCCCN)NC(=O)[C@@H](N)CCCCN)C(=O)OC1=CC[C@H]2[C@H]3Cc4ccc(O)c5c4[C@@]2(CCN3C)[C@H]1O5 [KKI-HM]
- IN AUC % (corrected value based on bioavailability of control HM) [1]: 68%
- IN Cmax % (corrected value based on control HM) [1]: 85%
- Oral AUC % (corrected value based on bioavailability of control HM) [2]: 24%
- Oral Cmax % (corrected value based on control HM) [2]: 56%

Compound: CC(C)C[C@H](NC(=O)[C@H](Cc1ccc(O)cc1)NC(=O)[C@@H](N)Cc1ccc(O)cc1)C(=O)OC1=CC[C@H]2[C@H]3Cc4ccc(O)c5c4[C@@]2(CCN3C)[C@H]1O5 [YYL-HM]
- IN AUC % (corrected value based on bioavailability of control HM) [1]: 74%
- IN Cmax % (corrected value based on control HM) [1]: 75%
- Oral AUC % (corrected value based on bioavailability of control HM) [2]: 12%
- Oral Cmax % (corrected value based on control HM) [2]: 30%

Reference: patent publication US20080207668A1, “PHARMACEUTICAL COMPOSITIONS OF HYD[…] PREVENTION OF OVERDOSE OR ABUSE” (New River Pharmaceuticals Inc., priority 2006, published 2008)
